The values below come from patent US20220242945A1 (SORRISO PHARMACEUTICALS, published 2022).

Residue numbers refer to the chain shown, from its start. In names and notes the source's numbering stands.

Assay [1] addresses T1, recombinant human IL-23 (human, UniProt Q9NPF7 20-189; P29460 23-328).
T1 construct: Heterodimer of p19 and p40; also called hIL-23; interleukin-23; not shown: single C-terminal 6xHis tag
T1 sequence 1: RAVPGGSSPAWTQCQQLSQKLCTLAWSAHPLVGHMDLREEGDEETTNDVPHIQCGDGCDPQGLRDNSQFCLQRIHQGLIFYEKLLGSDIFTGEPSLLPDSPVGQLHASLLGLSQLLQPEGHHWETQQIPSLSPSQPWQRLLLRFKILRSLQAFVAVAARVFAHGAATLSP
T1 sequence 2: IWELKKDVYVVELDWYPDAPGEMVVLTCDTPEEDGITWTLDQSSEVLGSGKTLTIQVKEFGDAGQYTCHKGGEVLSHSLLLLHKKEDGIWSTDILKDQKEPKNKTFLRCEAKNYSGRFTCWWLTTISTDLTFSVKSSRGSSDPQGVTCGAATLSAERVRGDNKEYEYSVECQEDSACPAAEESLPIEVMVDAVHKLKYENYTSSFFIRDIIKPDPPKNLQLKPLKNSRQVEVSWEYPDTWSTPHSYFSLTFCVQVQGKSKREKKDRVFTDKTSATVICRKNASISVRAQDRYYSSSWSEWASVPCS
Description: IL-23-IL-23R neutralisation ELISA (Evaluation Method A): ICVD titrated with recombinant human IL-23, binding to coated IL-23R-Fc. As for the experimental part: (§1) Maxisorp 96-well plates were coated overnight with 50 μl/well 0.3 μg/ml IL-23R-Fc then blocked with 4% milk, 1% BSA.

Another assay has as its target T2, THP-1 derived nhIL-23 (human, UniProt Q9NPF7 20-189; P29460 23-328).
T2 sequence (looked up) 1: T1 sequence 1
T2 sequence (looked up) 2: T1 sequence 2
The experiment in a line: cell-based or functional assay.

Assay [2] addresses T1, recombinant human IL-23. Description: IL-23-IL-23R neutralisation ELISA; average of 5 independent experiments. On the procedure: as §1
(§2) The Family L ICVD 12G1 underwent sequence modification to produce multiple variant ICVDs. These variant ICVDs were tested in the potency and protease stability assays detailed above.

In assay [3] the target is T1, recombinant human IL-23. Description: IL-23-IL-23R neutralisation ELISA; one experiment, left out of the average by the filing as an outlier.
The target of assay [4] is T1, recombinant human IL-23. Description: IL-23-IL-23R neutralisation ELISA. On the procedure: as §1, §2
Assay [5] deals with T1, recombinant human IL-23. Description: IL-23-IL-23R neutralisation ELISA (sheet title 'IL-23 IL23R ELISA'); construct blocks binding of IL-23 to IL-23R; A450.
Another assay concerns the target T3, human TNFα (human, UniProt P01375 77-233).
T3 construct: also called TNF-alpha
Description: competition ELISA on plate-coated human TNFα; competitor 2 nM biotinylated adalimumab, detected with ExtrAvidin-HRP, A450. On the procedure:
ELISA plates were coated with 100 ng/mL human TNFα in 250 μg/mL bovine serum albumin (BSA) in phosphate buffered saline (1×PBS) and blocked with 1% BSA in 1× PBS. […] Otherwise 1% BSA was used as an assay diluent.

T3 sequence (P01375 77-233 limits assumed): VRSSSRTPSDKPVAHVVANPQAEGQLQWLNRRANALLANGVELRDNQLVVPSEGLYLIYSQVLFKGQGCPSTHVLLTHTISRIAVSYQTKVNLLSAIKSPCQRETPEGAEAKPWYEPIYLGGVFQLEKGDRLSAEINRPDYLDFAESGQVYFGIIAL

B1: 12G1 (VHH)
VHH: EVQLVESGGGLVQPGGSLRLSCAASVSIWSFKVMGWYRQVPGKQRELVATITTGGSPDYADSVKGRFTMSRDYDKRTVFLEMDSVKPEDAAVYYCNGRLWAHLTSSGHDVWGQGTRVTVSS
notes: Purified primary clone made in E. coli; also called Family L ICVD 12G1; not shown: C-terminal FLAG and 6xHis tags from vector pMEK222
With B1, the 50% effective concentration (EC50) with recombinant human IL-23 [1] was determined as 0.387 nM.

B2: 1E2 (VHH)
VHH: B1 VHH with R116Q
notes: Purified primary clone made in E. coli; also called Family L ICVD 1E2; not shown: C-terminal FLAG and 6xHis tags from vector pMEK222
On to B2, for which the EC50 with recombinant human IL-23 [1] is 0.546 nM.

B3: 10G10 (VHH)
VHH: EVQLVESGGGLVQAGTSLRLSCAASGRTFSNYIMGWFRQAPGKEREFVAIITANGVATDYRDSVKGRFTISRDNARNTGYLEMNSLKPEDTAVYFCALRTRSGSLFDPGTFDYWGQGTQVTVSS
notes: Purified primary clone made in E. coli; not shown: C-terminal FLAG and 6xHis tags from vector pMEK222
As to B3, in the assay with recombinant human IL-23 [1], the EC50 is 1.47 nM.

B4: ID-L210T (VHH)
VHH: EVQLVESGGGQVQPGGSLRLSCESSVSIWSFKVMGWFRQVPGKQRELVATITTGGSPDYSDSVKGRFTISRDYDKRTLYLQMNSLKPEDTARYYCAGRLWAHITSSGHDVWGQGTQVTVSS
notes: Relative to ID-L253T: D1E, S19R, V92R
For B4, the “Mouse splenocyte (EC50; mIL-17 secretion, Evaluation Method C)” value (“Mouse splenocyte” below) with THP-1 derived nhIL-23 was 5.63 nM. Besides, the EC50 with recombinant human IL-23 [2] stood at 0.32 nM; with recombinant human IL-23 [3], 1.1 nM.

B5: ID-L243T (VHH)
VHH: B4 VHH with P87S
notes: Relative to ID-L253T: D1E, S19R, P87S, V92R
B5: the “Mouse splenocyte” value with THP-1 derived nhIL-23 was 5 nM. In the assay with recombinant human IL-23 [4], the EC50 came to 0.27 nM.

B6: ID-L251T (VHH)
VHH: B4 VHH with Q44E, L47F, D58H, R92V
notes: Relative to ID-L253T: D1E, S19R, Q44E, L47F, D58H
On to B6, for which the “Mouse splenocyte” value in the assay with THP-1 derived nhIL-23 is 5.74 nM. In addition, the EC50 in the assay with recombinant human IL-23 [4] was found to be 1.99 nM.

B7: ID-L245T (VHH)
VHH: B4 VHH with R19S, R92V
notes: Relative to ID-L253T: D1E
B7: the 50% effective concentration (EC50) with recombinant human IL-23 [4] was 0.25 nM.

B8: ID-L244T (VHH)
VHH: B4 VHH with R92V
notes: Relative to ID-L253T: D1E, S19R
On to B8, for which the “Mouse splenocyte” value in the assay with THP-1 derived nhIL-23 amounted to 6.62 nM. The EC50 with recombinant human IL-23 [4] came to 0.24 nM.

B9: ID-L241T (VHH)
VHH: B4 VHH with D58H
notes: Relative to ID-L253T: D1E, S19R, D58H, V92R
Consider B9, for which the “Mouse splenocyte” value with THP-1 derived nhIL-23 is 3.51 nM. Also, the 50% effective concentration (EC50) with recombinant human IL-23 [4] was found to be 0.31 nM.

B10: ID-L239T (VHH)
VHH: B4 VHH with R45L
notes: Relative to ID-L253T: D1E, S19R, R45L, V92R
B10: in the assay with THP-1 derived nhIL-23, the “Mouse splenocyte” value turned out to be 3.84 nM. Besides, the EC50 with recombinant human IL-23 [4] was 0.26 nM.

B11: ID-L238T (VHH)
VHH: B4 VHH with V40A
notes: Relative to ID-L253T: D1E, S19R, V40A, V92R
Consider B11, for which the “Mouse splenocyte” value in the assay with THP-1 derived nhIL-23 worked out at 5.54 nM. Also, in the assay with recombinant human IL-23 [4], the EC50 turned out to be 0.2 nM.

B12: ID-L252T (VHH)
VHH: B4 VHH with R19S, V40A, Q44E, R45L, I69L, L78V, R92V
notes: Relative to ID-L253T: D1E, V40A, Q44E, R45L, I69L, L78V
Take B12: the “Mouse splenocyte” value with THP-1 derived nhIL-23 was found to be 5.2 nM. Also, in the assay with recombinant human IL-23 [4], the concentration giving a half-maximal response (EC50) was found to be 0.26 nM.

B13: ID-L249T (VHH)
VHH: B4 VHH with R19S, V40A, R45L, D58H, R92V
notes: Relative to ID-L253T: D1E, V40A, R45L, D58H
For B13, the “Mouse splenocyte” value with THP-1 derived nhIL-23 turned out to be 4.27 nM. The EC50 in the assay with recombinant human IL-23 [4] worked out at 0.74 nM.

B14: ID-L248T (VHH)
VHH: B4 VHH with R19S, K43H, R45L, R92V
notes: Relative to ID-L253T: D1E, K43H, R45L
As for B14, in the assay with THP-1 derived nhIL-23, the “Mouse splenocyte” value amounted to 4.47 nM. The EC50 with recombinant human IL-23 [4] was 0.17 nM.

B15: ID-L246T (VHH)
VHH: B4 VHH with R19S, V40A, I69L, L78V, R92V
notes: Relative to ID-L253T: D1E, V40A, I69L, L78V
With B15, the EC50 in the assay with recombinant human IL-23 [4] came to 2.15 nM.

B16: ID-L237T (VHH)
VHH: B4 VHH with R19S
notes: Relative to ID-L253T: D1E, V92R
In the case of B16, the “Mouse splenocyte” value in the assay with THP-1 derived nhIL-23 came out at 6.35 nM. In the assay with recombinant human IL-23 [4], the half-maximal effective concentration (EC50) was found to be 0.24 nM.

B17: ID-L242T (VHH)
VHH: B4 VHH with S60R
notes: Relative to ID-L253T: D1E, S19R, S60R, V92R
Consider B17, for which the “Mouse splenocyte” value with THP-1 derived nhIL-23 is 3.01 nM. Besides, the half-maximal effective concentration (EC50) with recombinant human IL-23 [4] worked out at 0.22 nM.

B18: ID-L250T (VHH)
VHH: B4 VHH with R19S, V40A, R45L, L47F, D58H, R92V
notes: Relative to ID-L253T: D1E, V40A, R45L, L47F, D58H
For B18, the EC50 in the assay with recombinant human IL-23 [4] is 6.95 nM.

B19: ID-L247T (VHH)
VHH: B4 VHH with R19S, V40A, R45L, R92V
notes: Relative to ID-L253T: D1E, V40A, R45L
For B19, the “Mouse splenocyte” value in the assay with THP-1 derived nhIL-23 was 4.52 nM. Moreover, in the assay with recombinant human IL-23 [4], the EC50 was 0.31 nM.

B20: 10E2 (VHH)
VHH: EVQLVESGGGLAQAGGSLRLSCAPSGRAFSGSAMGWFRQVPGKEREFVGVIIWTGGYTYYADSVKGRFTISRDSAKNTVYLQMDSLKPEDTAVYYCAARTPNSSWFPTTLYEYDYWGQGTQVTVSS
notes: as for B3
Regarding B20, in the assay with recombinant human IL-23 [1], the EC50 is 1.45 nM.

B21: FA1K (bispecific antibody)
chain: DVQLVESGGGLVQPGGSLKLSCAASGFDFSSHWMYWVRQAPGKELEWLSEINTNGLITHYGDSVKGRFTVSRNNAANKMYLELTRLEPEDTALYYCARNQHGLNKGQGTQVTVSSGGGGSGGGGSKGGGGSGGGGSEVQLVESGGGQVQPGGSLSLSCESSVSIWSFKVMGWFRQVPGKQRELVATITTGGSPDYSDSVKGRFTISRDYDKRTLYLQMNSLKPEDTAVYYCAGRLWAHITSSGHDVWGQGTQVTVSS
notes: Before trypsin treatment; also called heterobihead anti-IL-23/anti-TNF-alpha construct; ID-38F-(G4S)2-K-(G4S)2-ID-L253T
As to B21, the binding result with recombinant human IL-23 [5] and in the assay with human TNFα was “binds” in each case.

B22: ID-38F (VHH)
VHH: DVQLVESGGGLVQPGGSLKLSCAASGFDFSSHWMYWVRQAPGKELEWLSEINTNGLITHYGDSVKGRFTVSRNNAANKMYLELTRLEPEDTALYYCARNQHGLNKGQGTQVTVSS
notes: also called anti-TNF-alpha ICVD ID-38F
As for B22, in the assay with human TNFα, the binding result is listed as “binds”.
